# Results published in PMC9482650, “Quantitative fragmentomics allow affinity mapping of interactomes” (Nature Communications, 2022).
# T1: APBA1_1, Q02410
# T1 sequence (Q02410 651-752, limits assumed, looked up): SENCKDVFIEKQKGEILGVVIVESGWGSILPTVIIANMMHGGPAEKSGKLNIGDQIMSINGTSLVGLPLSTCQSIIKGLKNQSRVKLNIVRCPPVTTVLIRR
# T2: APBA1_2, Q02410
# T2 sequence (Q02410 742-832, limits assumed, looked up): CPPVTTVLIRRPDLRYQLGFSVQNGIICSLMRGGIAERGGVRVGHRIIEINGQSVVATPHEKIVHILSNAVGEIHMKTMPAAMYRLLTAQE
# T3: DLG3_1, Q92796
# T3 sequence (Q92796 125-227, limits assumed, looked up): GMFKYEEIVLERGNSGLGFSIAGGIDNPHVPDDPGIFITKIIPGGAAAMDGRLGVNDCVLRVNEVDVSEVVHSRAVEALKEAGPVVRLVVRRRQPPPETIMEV
# T4: DLG3_3, Q92796
# T4 sequence (Q92796 374-475, limits assumed, looked up): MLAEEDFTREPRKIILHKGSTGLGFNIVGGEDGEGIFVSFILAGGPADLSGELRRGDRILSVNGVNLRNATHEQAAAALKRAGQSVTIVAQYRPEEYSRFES
# T5: GRIP1_3, Q9Y3R0
# T5 sequence (Q9Y3R0 247-346, limits assumed, looked up): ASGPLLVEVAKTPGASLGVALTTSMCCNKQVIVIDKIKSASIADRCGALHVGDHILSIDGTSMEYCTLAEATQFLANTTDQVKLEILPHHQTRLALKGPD
# T6: GRIP1_5, Q9Y3R0
# T6 sequence (Q9Y3R0 568-668, limits assumed, looked up): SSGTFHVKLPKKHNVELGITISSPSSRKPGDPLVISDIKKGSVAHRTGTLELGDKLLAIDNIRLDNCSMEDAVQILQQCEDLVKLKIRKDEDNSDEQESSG
# T7: LNX2_2, Q8N448
# T7 sequence (Q8N448 334-432, limits assumed, looked up): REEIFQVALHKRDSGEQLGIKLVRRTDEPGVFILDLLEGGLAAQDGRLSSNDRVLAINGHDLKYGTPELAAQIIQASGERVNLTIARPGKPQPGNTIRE
# T8: MPP2, Q14168
# T8 sequence (Q14168 180-250, limits assumed, looked up): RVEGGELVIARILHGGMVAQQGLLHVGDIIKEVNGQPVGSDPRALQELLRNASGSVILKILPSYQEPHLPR
# T9: NHERF3_1, Q5T2W1
# T9 sequence (Q5T2W1 4-100, limits assumed, looked up): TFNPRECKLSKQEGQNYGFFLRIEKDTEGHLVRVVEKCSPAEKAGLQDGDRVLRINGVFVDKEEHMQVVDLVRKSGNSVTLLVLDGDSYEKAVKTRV
# T10: RHPN1, Q8TCX5
# T10 sequence (Q8TCX5 508-602, limits assumed, looked up): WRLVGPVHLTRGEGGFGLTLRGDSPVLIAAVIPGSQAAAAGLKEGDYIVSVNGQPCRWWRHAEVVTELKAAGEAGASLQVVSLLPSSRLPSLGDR
# T11: SYNJ2BP, P57105
# T11 sequence (P57105 8-110, limits assumed, looked up): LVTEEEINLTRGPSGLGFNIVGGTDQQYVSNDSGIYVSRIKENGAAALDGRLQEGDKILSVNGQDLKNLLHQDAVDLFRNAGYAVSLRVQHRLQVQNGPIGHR
# T12: TIAM2, Q8IVF5
# T12 sequence (Q8IVF5 885-986, limits assumed, looked up): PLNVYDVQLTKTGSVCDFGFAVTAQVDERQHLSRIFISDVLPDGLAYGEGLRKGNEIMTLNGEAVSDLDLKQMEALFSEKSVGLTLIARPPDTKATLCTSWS
# B1: CLDN14, O95500 (peptide)
# chain: HSGYRLNDYV
# B2: GRIN2A, Q12879 (peptide)
# chain: KKMPSIESDV
# B3: TGFA, P01135 (peptide)
# chain: TACCHSETVV
# Target: AHNAK1, Q09666
# Sequence (Q09666 4-100): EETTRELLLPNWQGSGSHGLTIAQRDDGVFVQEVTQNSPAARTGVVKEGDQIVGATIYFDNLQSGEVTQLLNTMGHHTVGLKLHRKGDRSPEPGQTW
# Test: holdup assay
# Design: key: below the threshold = too weak to quantify, mostly under pKd 3.1 to 4
# Conditions: plain residues with an end cap or a label only (N-terminal biotin on a linker: ado-ado)
row,Binder,pKd
1,B1,below the threshold
2,B2,below the threshold
3,B3,below the threshold

# Target: T1, APBA1_1, Q02410
# Test: holdup assay
# Design: key: below the threshold = too weak to quantify, mostly under pKd 3.1 to 4
# Conditions: plain residues with an end cap or a label only (N-terminal biotin on a linker: ado-ado)
row,Binder,pKd
1,B1,below the threshold
2,B2,below the threshold
3,B3,below the threshold

# Target: T2, APBA1_2, Q02410
# Test: holdup assay
# Design: key: below the threshold = too weak to quantify, mostly under pKd 3.1 to 4
# Conditions: plain residues with an end cap or a label only (N-terminal biotin on a linker: ado-ado)
row,Binder,pKd
1,B1,3.84
2,B2,below the threshold
3,B3,3.87

# Target: T3, DLG3_1, Q92796
# Test: holdup assay
# Design: key: below the threshold = too weak to quantify, mostly under pKd 3.1 to 4
# Conditions: plain residues with an end cap or a label only (N-terminal biotin on a linker: ado-ado)
row,Binder,pKd
1,B1,below the threshold
2,B2,4.35
3,B3,4.19

# Target: T4, DLG3_3, Q92796
# Test: holdup assay
# Design: key: below the threshold = too weak to quantify, mostly under pKd 3.1 to 4
# Conditions: plain residues with an end cap or a label only (N-terminal biotin on a linker: ado-ado)
row,Binder,pKd
1,B1,below the threshold
2,B2,below the threshold
3,B3,3.85

# Target: DLG4_1, P78352
# Sequence (P78352 62-152): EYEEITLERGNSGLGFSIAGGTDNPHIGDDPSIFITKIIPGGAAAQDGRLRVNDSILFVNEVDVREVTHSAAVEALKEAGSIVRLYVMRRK
# Test: holdup assay
# Design: key: below the threshold = too weak to quantify, mostly under pKd 3.1 to 4
# Conditions: plain residues with an end cap or a label only (N-terminal biotin on a linker: ado-ado)
row,Binder,pKd
1,B1,below the threshold
2,B2,4.71
3,B3,4.75

# Target: FRMPD2_3, Q68DX3
# Sequence (Q68DX3 1073-1166): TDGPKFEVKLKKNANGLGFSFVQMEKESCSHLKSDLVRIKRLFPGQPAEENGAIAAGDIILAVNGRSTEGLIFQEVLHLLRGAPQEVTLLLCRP
# Test: holdup assay
# Design: key: below the threshold = too weak to quantify, mostly under pKd 3.1 to 4
# Conditions: plain residues with an end cap or a label only (N-terminal biotin on a linker: ado-ado)
row,Binder,pKd
1,B1,below the threshold
2,B2,below the threshold
3,B3,3.56

# Target: GRID2IP_2, A4D2P6
# Sequence (A4D2P6 272-370): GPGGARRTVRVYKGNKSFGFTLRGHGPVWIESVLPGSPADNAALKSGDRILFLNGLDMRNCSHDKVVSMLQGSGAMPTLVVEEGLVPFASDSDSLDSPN
# Test: holdup assay
# Design: key: below the threshold = too weak to quantify, mostly under pKd 3.1 to 4
# Conditions: plain residues with an end cap or a label only (N-terminal biotin on a linker: ado-ado)
row,Binder,pKd
1,B1,3.63
2,B2,3.59
3,B3,below the threshold

# Target: T5, GRIP1_3, Q9Y3R0
# Test: holdup assay
# Design: key: below the threshold = too weak to quantify, mostly under pKd 3.1 to 4
# Conditions: plain residues with an end cap or a label only (N-terminal biotin on a linker: ado-ado)
row,Binder,pKd
1,B1,below the threshold
2,B2,below the threshold
3,B3,below the threshold

# Target: T6, GRIP1_5, Q9Y3R0
# Test: holdup assay
# Design: key: below the threshold = too weak to quantify, mostly under pKd 3.1 to 4
# Conditions: plain residues with an end cap or a label only (N-terminal biotin on a linker: ado-ado)
row,Binder,pKd
1,B1,below the threshold
2,B2,below the threshold
3,B3,below the threshold

# Target: GRIP2_4, Q9C0E4
# Sequence (Q9C0E4 446-548): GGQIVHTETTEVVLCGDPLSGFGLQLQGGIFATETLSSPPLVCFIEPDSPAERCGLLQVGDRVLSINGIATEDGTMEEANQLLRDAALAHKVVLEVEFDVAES
# Test: holdup assay
# Design: key: below the threshold = too weak to quantify, mostly under pKd 3.1 to 4
# Conditions: plain residues with an end cap or a label only (N-terminal biotin on a linker: ado-ado)
row,Binder,pKd
1,B1,below the threshold
2,B2,below the threshold
3,B3,below the threshold

# Target: GRIP2_5, Q9C0E4
# Sequence (Q9C0E4 544-642): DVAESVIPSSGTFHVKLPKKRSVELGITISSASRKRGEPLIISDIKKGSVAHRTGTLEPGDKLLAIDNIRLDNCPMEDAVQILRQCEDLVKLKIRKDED
# Test: holdup assay
# Design: key: below the threshold = too weak to quantify, mostly under pKd 3.1 to 4
# Conditions: plain residues with an end cap or a label only (N-terminal biotin on a linker: ado-ado)
row,Binder,pKd
1,B1,below the threshold
2,B2,below the threshold
3,B3,below the threshold

# Target: HTRA1, Q92743
# Sequence (Q92743 360-477): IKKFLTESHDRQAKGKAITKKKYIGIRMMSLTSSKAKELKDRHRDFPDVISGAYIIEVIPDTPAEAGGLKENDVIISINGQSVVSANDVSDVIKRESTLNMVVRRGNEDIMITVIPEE
# Test: holdup assay
# Design: key: below the threshold = too weak to quantify, mostly under pKd 3.1 to 4
# Conditions: plain residues with an end cap or a label only (N-terminal biotin on a linker: ado-ado)
row,Binder,pKd
1,B1,4.34
2,B2,below the threshold
3,B3,4.62

# Target: IL16_3, Q14005
# Sequence (Q14005 1107-1207): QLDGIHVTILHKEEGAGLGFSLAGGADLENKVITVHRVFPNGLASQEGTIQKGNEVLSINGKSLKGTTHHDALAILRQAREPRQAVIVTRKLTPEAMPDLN
# Test: holdup assay
# Design: key: below the threshold = too weak to quantify, mostly under pKd 3.1 to 4
# Conditions: plain residues with an end cap or a label only (N-terminal biotin on a linker: ado-ado)
row,Binder,pKd
1,B1,below the threshold
2,B2,below the threshold
3,B3,below the threshold

# Target: Inadl_8, Q8NI35
# Sequence (Q8NI35 1425-1530): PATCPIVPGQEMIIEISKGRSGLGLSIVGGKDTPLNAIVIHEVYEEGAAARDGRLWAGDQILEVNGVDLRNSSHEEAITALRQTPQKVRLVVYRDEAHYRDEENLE
# Test: holdup assay
# Design: key: below the threshold = too weak to quantify, mostly under pKd 3.1 to 4
# Conditions: plain residues with an end cap or a label only (N-terminal biotin on a linker: ado-ado)
row,Binder,pKd
1,B1,3.87
2,B2,3.76
3,B3,3.72

# Target: T7, LNX2_2, Q8N448
# Test: holdup assay
# Design: key: below the threshold = too weak to quantify, mostly under pKd 3.1 to 4
# Conditions: plain residues with an end cap or a label only (N-terminal biotin on a linker: ado-ado)
row,Binder,pKd
1,B1,4.56
2,B2,below the threshold
3,B3,5.21

# Target: MAGI1_1, Q96QZ7
# Sequence (Q96QZ7 1-106): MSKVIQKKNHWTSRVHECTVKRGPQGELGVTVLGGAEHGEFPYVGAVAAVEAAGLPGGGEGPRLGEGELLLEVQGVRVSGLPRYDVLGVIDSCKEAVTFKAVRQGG
# Test: holdup assay
# Design: key: below the threshold = too weak to quantify, mostly under pKd 3.1 to 4
# Conditions: plain residues with an end cap or a label only (N-terminal biotin on a linker: ado-ado)
row,Binder,pKd
1,B1,below the threshold
2,B2,below the threshold
3,B3,below the threshold

# Target: T8, MPP2, Q14168
# Test: holdup assay
# Design: key: below the threshold = too weak to quantify, mostly under pKd 3.1 to 4
# Conditions: plain residues with an end cap or a label only (N-terminal biotin on a linker: ado-ado)
row,Binder,pKd
1,B1,below the threshold
2,B2,below the threshold
3,B3,below the threshold

# Target: T9, NHERF3_1, Q5T2W1
# Test: holdup assay
# Design: key: below the threshold = too weak to quantify, mostly under pKd 3.1 to 4
# Conditions: plain residues with an end cap or a label only (N-terminal biotin on a linker: ado-ado)
row,Binder,pKd
1,B1,4.59
2,B2,below the threshold
3,B3,3.64

# Target: NOS1, P29475
# Sequence (P29475 9-101): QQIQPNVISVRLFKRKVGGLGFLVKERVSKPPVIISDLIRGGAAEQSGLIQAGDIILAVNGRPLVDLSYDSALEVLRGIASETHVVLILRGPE
# Test: holdup assay
# Design: key: below the threshold = too weak to quantify, mostly under pKd 3.1 to 4
# Conditions: plain residues with an end cap or a label only (N-terminal biotin on a linker: ado-ado)
row,Binder,pKd
1,B1,4.21
2,B2,below the threshold
3,B3,below the threshold

# Target: PDLIM1, O00151
# Sequence (O00151 1-87): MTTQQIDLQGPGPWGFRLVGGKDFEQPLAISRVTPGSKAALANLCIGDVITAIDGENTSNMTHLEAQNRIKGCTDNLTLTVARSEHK
# Test: holdup assay
# Design: key: below the threshold = too weak to quantify, mostly under pKd 3.1 to 4
# Conditions: plain residues with an end cap or a label only (N-terminal biotin on a linker: ado-ado)
row,Binder,pKd
1,B1,below the threshold
2,B2,3.93
3,B3,below the threshold

# Target: PICK1, Q9NRD5
# Sequence (Q9NRD5 17-115): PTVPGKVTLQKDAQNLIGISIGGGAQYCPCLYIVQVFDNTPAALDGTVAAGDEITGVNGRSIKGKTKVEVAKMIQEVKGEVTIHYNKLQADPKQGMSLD
# Test: holdup assay
# Design: key: below the threshold = too weak to quantify, mostly under pKd 3.1 to 4
# Conditions: plain residues with an end cap or a label only (N-terminal biotin on a linker: ado-ado)
row,Binder,pKd
1,B1,4.13
2,B2,below the threshold
3,B3,below the threshold

# Target: T10, RHPN1, Q8TCX5
# Test: holdup assay
# Design: key: below the threshold = too weak to quantify, mostly under pKd 3.1 to 4
# Conditions: plain residues with an end cap or a label only (N-terminal biotin on a linker: ado-ado)
row,Binder,pKd
1,B1,below the threshold
2,B2,3.83
3,B3,4.24

# Target: SNX27, Q96L92
# Test: holdup assay
# Design: key: below the threshold = too weak to quantify, mostly under pKd 3.1 to 4
# Conditions: plain residues with an end cap or a label only (N-terminal biotin on a linker: ado-ado)
row,Binder,pKd
1,B1,3.72
2,B2,3.64
3,B3,5.6

# Target: T11, SYNJ2BP, P57105
# Test: holdup assay
# Design: key: below the threshold = too weak to quantify, mostly under pKd 3.1 to 4
# Conditions: plain residues with an end cap or a label only (N-terminal biotin on a linker: ado-ado)
row,Binder,pKd
1,B1,3.63
2,B2,4.85
3,B3,4.55

# Target: T12, TIAM2, Q8IVF5
# Test: holdup assay
# Design: key: below the threshold = too weak to quantify, mostly under pKd 3.1 to 4
# Conditions: plain residues with an end cap or a label only (N-terminal biotin on a linker: ado-ado)
row,Binder,pKd
1,B1,below the threshold
2,B2,3.96
3,B3,below the threshold
